Assay results published in article doi:10.1101/2020.12.07.415216.

Biological target: SARS-CoV-2 RBD homotrimer (RBD appended onto a cystine-stabilized, hyperglycosylated GCN4 trimerization tag) (SARS-CoV-2)
Assay: SDS-PAGE under non-reducing conditions

Question: How did the stoichiometry N turn out when “SARS-CoV-2 RBD homotrimer (RBD appended onto a cystine-stabilized, hyperglycosylated GCN4 trimerization tag)” was run?
Answer: Its stoichiometry N is 3.
